IntAct's records for PubMed 17954917

B1: Ephrin-B1 (Xenopus laevis (African clawed frog)), O13097 (parent)
chain: MEGLRRLLGLLLVLYRLCSALGKNLEPVTWNSQNPRFISGKGLVLYPEIGDRLDIICPKGDSSQPYEYYKLYMVRRDQLEACSTVIDPNVLVTCNQPGKEYRFTIKFQEFSPNYMGLEFRRNQDYYITSTSNSTLQGLENREGGVCQTRSMKIIMKVGQDPNAVPPEQLTTTRPSKEADNTGKIATFGPWNGPVENPGKSDTNLSDKPTAGGGVDGFFNSKIAVFAAIGAGCVIFILIIIFLVVLLIKIRKRHRKHTQQRAAALSLSTLASPKCSGNAGSEPSDIIIPLRTTENNYCPHYEKVSGDYGHPVYIVQEMPPQSPANIYYKV
B2: Signal transducer and activator of transcription 3 (Rattus norvegicus (Rat)), P52631 (parent)
chain: MAQWNQLQQLDTRYLEQLHQLYSDSFPMELRQFLAPWIESQDWAYAASKESHATLVFHNLLGEIDQQYSRFLQESNVLYQHNLRRIKQFLQSRYLEKPMEIARIVARCLWEESRLLQTAATAAQQGGQANHPTAAVVTEKQQMLEQHLQDVRKRVQDLEQKMKVVENLQDDFDFNYKTLKSQGDMQDLNGNNQSVTRQKMQQLEQMLTALDQMRRSIVSELAGLLSAMEYVQKTLTDEELADWKRRQQIACIGGPPNICLDRLENWITSLAESQLQTRQQIKKLEELQQKVSYKGDPIVQHRPMLEERIVDLFRNLMKSAFVVERQPCMPMHPDRPLVIKTGVQFTTKVRLLVKFPELNYQLKIKVCIDKDSGDVAALRGSRKFNILGTNTKVMNMEESNNGSLSAEFKHLTLREQRCGNGGRANCDASLIVTEELHLITFETEVYHQGLKIDLETHSLPVVVISNICQMPNAWASILWYNMLTNNPKNVNFFTKPPIGTWDQVAEVLSWQFSSTTKRGLSIEQLTTLAEKLLGPGVNYSGCQITWAKFCKENMAGKGFSFWVWLDNIIDLVKKYILALWNEGYIMGFISKERERAILSTKPPGTFLLRFSESSKEGGVTFTWVEKDISGKTQIQSVEPYTKQQLNNMSFAEIIMGYKIMDATNILVSPLVYLYPDIPKEEAFGKYCRPESQEHPEADPGSAAPYLKTKFICVTPTTCSNTIDLPMSPRTLDSLMQFGNNGEGAEPSAGGQFESLTFDMDLTSECATSPM
partner: B1 chain

Variants of: B1
Details: with stat3_rat Stat3, P52631

Variant | effect of a mutation on the interaction
MEGLRRLLGLLLVLYRLCSALGKNLEPVTWNSQNPRFISGKGLVLYPEIGDRLDIICPKGDSSQPYEYYKLYMVRRDQLEACSTVIDPNVLVTCNQPGKEYRFTIKFQEFSPNYMGLEFRRNQDYYITSTSNSTLQGLENREGGVCQTRSMKIIMKVGQDPNAVPPEQLTTTRPSKEADNTGKIATFGPWNGPVENPGKSDTNLSDKPTAGGGVDGFFNSKIAVFAAIGAGCVIFILIIIFLVVLLIKIRKRHRKHTQQRAAALSLSTLASPKCSGNAGSEPSDIIIPLRTTENNFCPHYEKVSGDFGHPVFIVQEMPPQSPANIYYKV [Y296F;Y307F;Y312F] | decreasing interaction strength
MEGLRRLLGLLLVLYRLCSALGKNLEPVTWNSQNPRFISGKGLVLYPEIGDRLDIICPKGDSSQPYEYYKLYMVRRDQLEACSTVIDPNVLVTCNQPGKEYRFTIKFQEFSPNYMGLEFRRNQDYYITSTSNSTLQGLENREGGVCQTRSMKIIMKVGQDPNAVPPEQLTTTRPSKEADNTGKIATFGPWNGPVENPGKSDTNLSDKPTAGGGVDGFFNSKIAVFAAIGAGCVIFILIIIFLVVLLIKIRKRHRKHTQQRAAALSLSTLASPKCSGNAGSEPSDIIIPLRTTENNFCPHYEKVSGDYGHPVFIVQEMPPQSPANIYYKV [Y296F;Y312F] | decreasing interaction strength

Variants of: B2
Details: with efnb1_xenla efnb1, O13097

Variant | effect of a mutation on the interaction
R609L | disrupting interaction strength
